# Reference: the DeepSol protein solubility set
# Assay: soluble on expression in E. coli; label from the status in PepcDB or PDB records
row,Sequence,soluble on expression in E. coli
1,MAHHHHHHMRHMCVTLKRRACTVSFSPFLMSYFQSMLMPYRDSVRSSKSDKASSRTVNEEAKVSLSAFSFLFSEMCTRAHNTPSKASNVEEIEQRLTSLGVLVGARLIMLSSLKDPLELQRRPITIEGALKLFQDKLWSRWFGKPANDLQRETGSDRFFIFDTEPIVLRYVYPSPEYLDGEGRWSINYASFMGGIVEGALKAIGFAAEVLTYHQPEPSKPHQSIFAISFAKHVWDRERRLRG,not soluble
2,MGHHHHHHSHMQGLLRFEDQDSARGDQNIAMFYPTSTQMVYRRGLQAIPLSGDLWIHYINFLKETLDPGDPETNNTIRGTFEHAVLAAGTDFRSDRLWEMYIDWENEQGNLREVTAIYDRILGIPTQLCSHHFQRFKEHVQNNLPRDLLTGEQFIQLRRELASVNGHSGDDGPPGDDLPSGIEDITDPAKLITEIENMRHRIIEIHQEMFNYNEHEVSKRWTFEEGIKRPYFHVKPLEKAQLKKLERILRI,soluble
3,MKGVHHRPHEAVPTWACGWGVATTEHMAVSRRKHFSSICLHAQGSSRLPVLSTGTAVSELLRTSLCQVVELGPSPYLSLVPTVLLTVQHLGALAWGWRPW,soluble
4,SRDSAFRERLLRLAPKYPLVLAVSGGGDSVALALLVKEAGRQAVVAHLDHGLRPESPLDQAFVRALAERLGFPFFTERVEVARIAQARGENLEAVAREVRYAFLHRVAREVGARAILTAHTLDDQAETVLLQLLQGTARATGIREREGIVVRPLLAHTREELRAYLRARGEAWREDPTNQDPALDRNFLRLFVFPLLEERFPAAKRALARFAEARAEEEGVLERQAEARLLPDPRFFVPAFRAAPLLEAPLAVRRRALRRLLEKLGLRPEARLVLLLEEALRGRPQTLPGGVLARRKGGTLFLLPPRPRLPLPPGFRRPAPGDYLERPSGRKRLVDFLAEKGVPRELKPLWPVRAEGNRVVEVLGLYPPPPEEAHMAEALAEAASAFREGEVPVGAVLVLPGRVLRAHNRVEGLRDPTAHAEMLLLREAGPEARGGRLYVTLEPCLMCHHALAQAGVEVVYGAENLKEGALTRFGLPTRARGGVRERECAKLLRDFFARLREGCRSG,soluble
5,GHMSYSITLRVYQTNRDRGYFSIVEKTVWHFANGGTWSEANGAHTLTMGGSGTSGMLRFMSTKGERITVAVGVHNYKRWCDVVTGLKPDETALVINPQYYNNGGRDYVREKQLAEYSVTSAIGTKVEVVYTVAEGNNLEANVIFS,soluble
6,MILMIDNYDSFTFNLVQFLGELGQELVVKRNDEVTISDIENMKPDFLMISPGPCSPNEAGISMDVIRYFAGKIPIFGVCLGHQSIAQVFGGEVVRAERLMHGKTSPMHHDGKTIFSDIPNPFTATRYHSLIVKKETLPDCLEVTSWTEEGEIMALRHTTLPIEGVQFHPESIMTSHGKELLQNFIRKYSPSVTSC,not soluble
7,MSKTRMEKLKTLKTIAETLNQGHDIKATLDEVLKELLSLTNLQSGWIFLIEEDGSYTLAADAYLPPALSRKEKVLMCEGECYCLTKFNNGGLRKAANIMNCKRIESAENLHCFDTEGITHHATVPLEDGDRRFGLLNVAAAGKTMFDEEELHLLESVAFQIGTAIQRMRLSE,soluble
8,MVEDILAPGLRVVFCGINPGLSSAGTGFPFAHPANRFWKVIYQAGFTDRQLKPQEAQHLLDYRCGVTKLVDRPTVQANEVSKQELHAGGRKLIEKIEDYQPQALAILGKQAYEQGFSQRGAQWGKQTLTIGSTQIWVLPNPSGLSRVSLEKLVEAYRELDQALVVRGR,soluble
9,MGSDKIHHHHHHMITHRSDLNANYLLNALPRSEWESLAQHVELVRLRAGELLTDSGQRIVHVYFPTTSVVSLLSLLEDGATVEIAAVGNEGLVGVPVVTGGDTMPCRVEVRSPGLAYRIPARLLRSELPRTPTLQRVTLLYVQAMLTQIAQTAACNRHHSLNKQLCRWLLLAVDRLSSNELVITQQVIANMLGVRREGVTEAAGKLEDLGLIHHSRGHITVLDRCGLEKHSCECYKLVKREYDRLLPALAHA,not soluble
10,MEDDMSVVDNIRFTFLYIEFYSMGRTWVYPESVIPYSIFRYIEKGKAELCIDGEEIIVEENQIVYIPQGCKMSCRALGESFEFYSLRFTTSVFYEGEDMLAEYYGIPRVSVNEGEDVYFKEIYKWVKKDSMVKKCFVRGNLDLLIGSLAMHGNKVDKVTGDFVETIEEKSLRDRNSKKNEQIDPRIYIVADYIILHPSEKYTPQKMAEMADLSKQRFSSLFKINMGKTPMEYVREIRLTTAARALLVSNDNINDIAYACGYEDTNYFIREFKSAFGFTPNQYRKVARE,not soluble
11,MGSDKIHHHHHHQSGPLRLEITEGVIEPLPFALPTFLAVGGAEDAAADVSRVIAADLRGTGLFRQIPPDAYISQITNFGAPVAYPDWQAINAQALITGQVEARADGQLVVRFRLFDVFSQAPLGEGLQFVGPADSWRRMAHTVADQVYSRITGEGGYFDTRVAFIAEEGPKNARLKRLAIMDYDGANVQFLTDSRSIVLAPRFSPQGDRILYTSYESGFPQVYIMDVATVQRRPLEAIPAETMTFSPRFSPSGQSVVFSLVDGSNTDIYSLDLATGTRRQLTQAPSIETAPSFSPDGSQIVFESDRSGNQQIYIMPADGGEARRVSAGTGRYGTPVWSPRGDYIAFTKQENGRFHIGVMRTDGSDERLLTSSFLDEGPTWAPNGRVIMFTRETPGDDGAPAVYSVDISGRNLQRVATPGMASDPAWSPLQS,not soluble
12,MSLILVTGAAGFIGSHLCEQLLMNEKVSVVGVDGHIDSSLCKVKERNVRNLLKHPRFTLLKQDLLTIDLEPLVDQVDVIYHLSGIPGVRSSWGTDFKKYVTHNIVATQQLLEACRRHSLEKFIYISTSSVYGQKNGKVGEKASPTPLSPYGVSKLTGEHLCNVYYRNFSIPTVILRYFTVYGPRQRQDMAFHRFIKAIIDNQPIPIFGDGNQSRDFTYIDDCIAATCAVLHADVIGETINIGGKERATVLQIISMLESIFQKDAKLQFLEKPFGEPMSTWADISKAEKLLRYSPNVPLLQGIEKEVDEGHHHHHH,soluble
13,MGSDKIHHHHHHMNFREEFKLLLRARYPLIYIPTYEEERVEAAIREEATNQGNRPVYTWDFVDGYQGNPNDVGFGRRNPLQALEFIEKLPASAPAVLILRDYHRFLDDVAIARKLRNLSRLLKSQPKNIVLLSPRIAIPDDLTEVLTVVEFPLPAAAEIKTEVERLLQSTGNSLSGKVLDDLVLSCQGLSMERIRRVLAKAIATHGELQPEDVDLVLEEKRQTIRQTQILDFYPATEQISDIGGLDNLKDWLIRRGGSFTDKARQYGLPHPRGLMLVGIQGTGKSLTAKAIAHHWHLPLLRLDVGRLFGGLVGESESRTRQMIQVAEALAPCILWIDEIDKAFAGLGSKGDAGTASRVFGTFINWLAEKSSPVFVVATANDIQALPPEMLRKGRFDEIFFVGLPTQEERKAIYDVHLSRLRPHNLKSYDIERLAYETPDFSGAEIEQTLIEAMHIGFSQNRDFATDDILEAASQIVPLARTAVEQIQQLQEWAAAGRARLASKHNPLSERLRRTT,not soluble
14,MKLKELVKQFIPMNYWNTRRKASIIRQQGKVADFWAPILKAYYNGEIERYSLKPKKKLGTQKVIWQYWGQGIDKDELPEIIQICFDSVDRNKNDYQVIRLTDITISEYIDLPDFVWRKREYVQFTRTFFSDLLRVALLSTYGGVWLDATILLTGSIPAVYEKTDFFMYQRSDEEKNKKYWENVYAYYFGWEPNFKVRMLSSILFAQKESEIISTLTDLLLYFWKTQDSLPDYFCFQILFNELVANYRPAENCPIVNDCIPHIIQTKINGTYDDVSFEEALELSNIHKMTYFDAAAMIRLKMVLRLARNALEHHHHHH,soluble
15,MGSDKIHHHHHHMDEQLEQLMRQLSGLNEQVRNGAVYQSLGTRLGKLMDGIQRRRRTAVVLPDDQDGVKDVLAELRHQLEQNVPVTLTHEKLTLLTAHLSSTDMALRYQGINFTLYDALQQDALDSAQMAFLLDELSRPDALFSHILEPANTAVFGRSARVAMLAVILHFVTPDVQSHTPDLRRIVILAAMYLCLETDTRGFVNQHGWAHAFTAITDLLTVLAGTEALPRADKLFLMMTLLERVKRLNTPLIYGENDRMAMYLSELANRHQLYADTLLLSLKQWRQQVALHRRPDTIAGWNRFFNRKRLLDSLRLQSELPASLQKYLNSTIDFLG,not soluble
16,MGSDKIHHHHHHMVKLPPLSLYIHIPWCVQKCPYCDFNSHALKGEVPHDDYVQHLLNDLDNDVAYAQGREVKTIFIGGGTPSLLSGPAMQTLLDGVRARLPLAADAEITMEANPGTVEADRFVDYQRAGVNRISIGVQSFSEEKLKRLGRIHGPQEAKRAAKLASGLGLRSFNLDLMHGLPDQSLEEALGDLRQAIELNPPHLSWYQLTIEPNTLFGSRPPVLPDDDALWDIFEQGHQLLTAAGYQQYETSAYAKPGYQCQHNLNYWRFGDYIGIGCGAHGKVTFPDGRILRTTKTRHPRGFMQGRYLESQRDVEATDKPFEFFMNRFRLLEAAPRVEFIAYTGLCEDVIRPQLDEAIAQGYLTECADYWQITEHGKLFLNSLLELFLAE,not soluble
17,MSLDKPVLLLGEICVDFTLSTPMSSAKMRLGGVVHAARGLWALNVPYSVAAICPDYLVSEAEAYLYAHGCTNFIQVGTVLGAPNVFLIGDAREVGHQGYENILREAKKVLTFDLDEKLRGFKNIVVYPGTFDFEGIVKNLDSDAKITVDIAYDVNDADELSRVYGASHALAISTSSELFSSLALENLGPLLKACKTRSAKHLLLKENRGGSRLFDLESGESWEIPATLARTVNSVGVGDVYTAVFAALIDHGALTAALRGMQAATRYAQTTFPDDFKRDVQRDEGHHHHHH,not soluble
18,MAHHHHHHMGTYFSKDLQECLREEKRNLNRSIRELEREIFKMENEKKQIEKNIRIHAKKNDITLVRTLAKDLVKIKQNVIKYNKIKSHLLSMKIKLQSVKSSEQLNKSLCDINNIIKRVNKYIQVKNINNSIYEFQKQNNEVSIKEDMIDDLFDTLNYDIDMIQEEDEIVSKVLDELGIQLNSKLEQIPTIKQTENEQLDNVNISKIEDRINNLKKM,soluble
19,MSLKNTTHFIVFDIERNFRPYKSDDPSEIVDIGAVKIEASTMKVIGEFSELVKPGARLTRHTTKLTGITKKDLMNVEKFPQIIERFIQFIGEDSIFVTWGKEDYRFLVHDCTLHGVDCPCMEKERRIDLQKFVFQAYEELFEHTPSLQSAVEQLGLTWEGKQHRALADAENTANILLKAYSERDITKRYKRHGELELVENGKLTEKAKKKMRKWVFKEMRKNTERPFAWSTFESSDTWESITERYYISEPTIELLKKHFRTAVRKAERRIRYLAEMEKNAEVKEGHHHHHH,soluble
20,MASIINKQIISPTGRNMEIINYEILKKYPLCDRCFGRLYAKLLHTTNTERGRALKLYKALELEAKIKKAKEKGINYEEELELLKALAKSGVDEIRLEDIEIEKENCPWCRGIFNKQKMEKLLNKAIELLKEYDFDTFLIGTHIPEEIKDLEKEIETEFMESIKQEFGREFGKMLAVRLDKAPDKEYPDIVVHINPYTEEIYLQINPLFIKGRYRKLVRGIPQTRWPCRKCRGKGCELCNYTGKKYPISVEEIIAKPFLEATKGVDAKFHGAGREDIDVRMLGDGRPFVLEIKEPKIRKIDLNKIAEEINKDGRVEVLNLEFGVRKDKVIFKNTPHRKTYRALVECSDKITDEELKLLEKELENRTIYQKTPKRVLHRRADLERIRKVYKVKTSKVDDNHFEMIIYCDGGLYIKELISGDDGRTNPSVSSILNKNCICKELDVLKIHDNNLLEKG,soluble
21,MSLVQFASDTDPIVQPDSLSDAGAAAPVTREAVLGAFLRAHRERLAPADVGLPPGRRRRTPGLRREEVAQLAGLSATWVTWLEQGRPVALSARALASLAAALRLSRAERAYLFELAGRRDPQQAGGEAVPAAVMASVHAIRGPAYLLDRQWNALTWNAAAAELFIGWLDGDSQERNLLRAMFVSAPLQALVEDWPHRAGRLVAEFRAHSIRHADDAPMRALIEGLMAESPAFRAAWLSQDVEDREGGRRGFRHPALGALQFEQLTLWPAAAPGLMLVMLLPAEGHHHHHH,not soluble
